Reference: the supplement of paper PMC9112550, “Optimization of the antimicrobial peptide Bac7 by deep mutational scanning” (BMC Biology, 2022)

system: Escherichia coli TOP10; assay: shrunken log2 fold change of peptide-encoding DNA abundance (4.5 h post-induction vs induction); higher = less antimicrobial activity (less host growth inhibition); conditions: time post-induction: 4.5 h; library: site-saturation at positions 5, 18, 19, 20
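Also: peptides expressed intracellularly from a pBAD plasmid library in pooled LB shake-flask culture, induced with 0.3% L-arabinose, DNA abundance read by NGS, three biological replicates, DESeq2 with apeglm shrinkage.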

Sequence	shrunken log2 fold change
RRIRYRPPRLPRPRPRPLTDPRP	-0.134
RRIRYRPPRLPRPRPRPTVSPRP	-0.288
RRIRQRPPRLPRPRPRPQCIPRP	-0.0582
RRIRVRPPRLPRPRPRPDWFPRP	-0.597
RRIRARPPRLPRPRPRPQHAPRP	0.269
RRIRKRPPRLPRPRPRPMWEPRP	0.214
RRIRERPPRLPRPRPRPLHYPRP	-0.249
RRIRERPPRLPRPRPRPRAYPRP	-0.125
RRIRSRPPRLPRPRPRPRSSPRP	-0.269
RRIRARPPRLPRPRPRPSATPRP	1.26
RRIRNRPPRLPRPRPRPRTAPRP	-0.0352
RRIRNRPPRLPRPRPRPHCPPRP	-1.27
RRIRSRPPRLPRPRPRPFCTPRP	-0.375
RRIRQRPPRLPRPRPRPTIGPRP	0.0815
RRIRQRPPRLPRPRPRPDVRPRP	-0.023
RRIRVRPPRLPRPRPRPWWDPRP	0.00445
RRIRMRPPRLPRPRPRPEVEPRP	-0.0272
RRIRRRPPRLPRPRPRPRYIPRP	-0.12
RRIRRRPPRLPRPRPRPPFDPRP	0.735
RRIRNRPPRLPRPRPRPQNDPRP	-0.966
RRIRYRPPRLPRPRPRPIEPPRP	-0.111
RRIRFRPPRLPRPRPRPGWPPRP	0.489
RRIRDRPPRLPRPRPRPNENPRP	-0.177
RRIRGRPPRLPRPRPRPMYNPRP	-0.104
RRIRIRPPRLPRPRPRPEVAPRP	0.218

Sequence	shrunken log2 fold change
RRIRYRPPRLPRPRPRPAHIPRP	-0.467
RRIRNRPPRLPRPRPRPIPHPRP	0.134
RRIRDRPPRLPRPRPRPFRWPRP	0.317
RRIRRRPPRLPRPRPRPASNPRP	0.472
RRIRWRPPRLPRPRPRPIGKPRP	-0.0958
RRIRTRPPRLPRPRPRPLVSPRP	-0.0657
RRIRDRPPRLPRPRPRPPEPPRP	0.84
RRIRYRPPRLPRPRPRPHAPPRP	-0.0159
RRIRCRPPRLPRPRPRPGEWPRP	0.393
RRIRHRPPRLPRPRPRPRGTPRP	-0.164
RRIRHRPPRLPRPRPRPSCPPRP	-0.217
RRIRVRPPRLPRPRPRPLLTPRP	-0.0362
RRIRCRPPRLPRPRPRPKFKPRP	-0.287
RRIRSRPPRLPRPRPRPQLPPRP	0.53
RRIRARPPRLPRPRPRPCHQPRP	-0.34
RRIRWRPPRLPRPRPRPTNVPRP	-0.0165
RRIRKRPPRLPRPRPRPSYEPRP	-0.304
RRIRRRPPRLPRPRPRPGSTPRP	0.1
RRIRWRPPRLPRPRPRPVLYPRP	0.0298
RRIRERPPRLPRPRPRPPNRPRP	-0.289
RRIRNRPPRLPRPRPRPAKAPRP	0.113
RRIRVRPPRLPRPRPRPTETPRP	0.0324
RRIRPRPPRLPRPRPRPFYYPRP	-0.838
RRIRQRPPRLPRPRPRPAADPRP	0.0593
RRIRVRPPRLPRPRPRPDKPPRP	0.028

Sequence	shrunken log2 fold change
RRIRPRPPRLPRPRPRPQLEPRP	0.376
RRIRYRPPRLPRPRPRPMPFPRP	0.00489
RRIRFRPPRLPRPRPRPLCIPRP	-0.571
RRIRSRPPRLPRPRPRPGYIPRP	-0.0571
RRIRERPPRLPRPRPRPPAEPRP	0.758
RRIRDRPPRLPRPRPRPKIIPRP	-0.0166
RRIRRRPPRLPRPRPRPARCPRP	0.42
RRIRCRPPRLPRPRPRPFIPPRP	-0.976
RRIRLRPPRLPRPRPRPMWWPRP	1.19
RRIRCRPPRLPRPRPRPGQRPRP	0.0965
RRIRTRPPRLPRPRPRPCCNPRP	-0.282
RRIRGRPPRLPRPRPRPLSSPRP	0.598
RRIRWRPPRLPRPRPRPTDVPRP	-0.283
RRIRPRPPRLPRPRPRPNGVPRP	-0.0233
RRIRMRPPRLPRPRPRPWILPRP	-0.201
RRIRIRPPRLPRPRPRPYPYPRP	0.0143
RRIRWRPPRLPRPRPRPTKSPRP	0.176
RRIRLRPPRLPRPRPRPQIYPRP	-0.17
RRIRIRPPRLPRPRPRPRVLPRP	-0.24
RRIRERPPRLPRPRPRPQNIPRP	-0.837
RRIRKRPPRLPRPRPRPGRWPRP	0.622
RRIRFRPPRLPRPRPRPQWNPRP	-0.345
RRIRKRPPRLPRPRPRPFGTPRP	-0.0368
RRIRVRPPRLPRPRPRPRSTPRP	0.0765
RRIRQRPPRLPRPRPRPIIIPRP	-0.197

Sequence	shrunken log2 fold change
RRIRLRPPRLPRPRPRPNDAPRP	0.229
RRIRDRPPRLPRPRPRPNYWPRP	-0.218
RRIRLRPPRLPRPRPRPPTKPRP	0.288
RRIRMRPPRLPRPRPRPKYAPRP	0.928
RRIRGRPPRLPRPRPRPRVKPRP	0.856
RRIRMRPPRLPRPRPRPQPEPRP	0.582
RRIRNRPPRLPRPRPRPLLHPRP	-0.135
RRIRGRPPRLPRPRPRPPIWPRP	0.67
RRIRDRPPRLPRPRPRPDRCPRP	-0.149
RRIRTRPPRLPRPRPRPERVPRP	0.296
RRIRNRPPRLPRPRPRPPYVPRP	-0.0374
RRIRKRPPRLPRPRPRPYDQPRP	0.0359
RRIRLRPPRLPRPRPRPQWGPRP	0.00618
RRIRMRPPRLPRPRPRPHPQPRP	0.427
RRIRKRPPRLPRPRPRPCWRPRP	0.183
RRIRCRPPRLPRPRPRPYYQPRP	-1.14
RRIRFRPPRLPRPRPRPSSAPRP	-0.0032
RRIRDRPPRLPRPRPRPQSEPRP	0.0514
RRIRYRPPRLPRPRPRPANPPRP	-0.422
RRIRGRPPRLPRPRPRPTDNPRP	0.283
RRIRSRPPRLPRPRPRPKDCPRP	0.456
RRIRDRPPRLPRPRPRPNGVPRP	-0.0244
RRIRWRPPRLPRPRPRPHRFPRP	0.077
RRIRERPPRLPRPRPRPEQMPRP	-6.54e-05
RRIRLRPPRLPRPRPRPIKIPRP	0.0507

Sequence	shrunken log2 fold change
RRIRNRPPRLPRPRPRPFSRPRP	-0.000753
RRIRNRPPRLPRPRPRPCNRPRP	-0.00992
RRIRYRPPRLPRPRPRPERGPRP	-0.0437
RRIRWRPPRLPRPRPRPMGKPRP	0.561
RRIRERPPRLPRPRPRPYINPRP	-0.248
RRIRSRPPRLPRPRPRPVQQPRP	-0.00468
RRIRVRPPRLPRPRPRPKQVPRP	-0.0801
RRIRFRPPRLPRPRPRPHHYPRP	-0.681
RRIRHRPPRLPRPRPRPMWNPRP	-0.0721
RRIRLRPPRLPRPRPRPMISPRP	0.00361
RRIRWRPPRLPRPRPRPPEYPRP	0.539
RRIRNRPPRLPRPRPRPLNHPRP	-0.286
RRIRWRPPRLPRPRPRPTMHPRP	0.454
RRIRWRPPRLPRPRPRPNTFPRP	2.19
RRIRNRPPRLPRPRPRPVQSPRP	0.00489
RRIRQRPPRLPRPRPRPPFKPRP	-0.0455
RRIRYRPPRLPRPRPRPCVCPRP	-1.24
RRIRFRPPRLPRPRPRPLTTPRP	0.0259
RRIRSRPPRLPRPRPRPWKQPRP	-0.00145
RRIRTRPPRLPRPRPRPWKIPRP	-0.0703
RRIRSRPPRLPRPRPRPDHDPRP	-0.357
RRIRGRPPRLPRPRPRPQRGPRP	0.119
RRIRVRPPRLPRPRPRPRNAPRP	0.225
RRIRLRPPRLPRPRPRPIQLPRP	-0.235
RRIRKRPPRLPRPRPRPEECPRP	0.00489
